Results published in article PMC12307814, “The structure of the Tad pilus alignment complex reveals a periplasmic conduit for pilus extension” (Nature Communications, 2025).

Tests used:
[1] = biological target: the molecule itself; assay: SEC-MALS; single purified protein; 50 uL at 2 mg/mL on a WTC 015S5 column, 50 mM HEPES, 150 mM NaCl, 200 mM arginine, 1 mM TCEP, pH 8.0, 0.8 mL/min
[2] = biological target: T1, periplasmic N-domain of RcpA (RcpAN) (Pseudomonas aeruginosa, UniProt Q9HW96 28-115); assay: SEC-MALS; co-expressed (two plasmids) and co-purified RcpC_(33-303)-RcpAN complex; 50 uL at 2 mg/mL on a WTC 015S5 column, 50 mM HEPES, 150 mM NaCl, 200 mM arginine, 1 mM TCEP, pH 8.0; details: both partners purified
T1 construct: RcpA outer membrane secretin, Pseudomonas aeruginosa, periplasmic N-domain (9.7 kDa, small globular Ig domain fold); Gene codon optimised, in pET28a; also called His-RcpAN; His-RspAN; source: E. coli BL21 (DE3), purified (Ni-NTA, SEC); also co-expressed with RcpC constructs and co-purified
T1 sequence: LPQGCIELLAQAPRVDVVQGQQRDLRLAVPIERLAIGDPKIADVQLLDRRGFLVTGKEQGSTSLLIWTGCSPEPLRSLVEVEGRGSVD

B1: RcpC periplasmic domain (RcpC_(33-303)) (domain or fragment)
chain: NAHAPSVAPASATVDASLEKLERKPVLVASRDLPALAVIGRDDLSVELLRTAPVGSYDRPEALLGKRVWVAVPAGSILSAATLEPGGPLARTIRPDERAMAIAVDEVVGGGGFVLPGDYVDVMLFVRDERDGESTPLAQLVLPGVRVLTYGERIAVGSDGQDRSNQEKDPRPPRTAVLAVPEDGVARLMLASQAGSLRLAIRSKDEELYRREQEGALLQASLGAPSAALSLDQLLERRKPTAPSVRSAAPRVPVANGVTVYRGSAMTHEAP
notes: RcpC, Pseudomonas aeruginosa, residues 33-303 of the full-length protein (RcpC_(1-303)); lacks the N-terminal transmembrane helix; holds D1, D2, linker L3 and the C-terminal β-hairpin; Gene codon optimised, in pET21a; also called RcpCΔN; periplasmic region of RcpC; source: E. coli BL21 (DE3), purified (Ni-NTA, SEC); also co-expressed with RcpAN and co-purified; not shown: His tag (from the Ni-NTA …)
stoichiometry N [1]: 12 copies
stoichiometry N [2]: 2 RcpC per RcpA (12:6 RcpC:RcpA)
